Reference: patent US20070293425A1 (JULIUS MAXIMILIANS UNIVERSITAT WURZBURG, published 2007)

T1: Noggin/Fc
T1 construct: Bought (R&D systems); construct not described; also called Noggin-Fc fusion protein
T1 sequence (Q13253 whole entry, species assumed, looked up): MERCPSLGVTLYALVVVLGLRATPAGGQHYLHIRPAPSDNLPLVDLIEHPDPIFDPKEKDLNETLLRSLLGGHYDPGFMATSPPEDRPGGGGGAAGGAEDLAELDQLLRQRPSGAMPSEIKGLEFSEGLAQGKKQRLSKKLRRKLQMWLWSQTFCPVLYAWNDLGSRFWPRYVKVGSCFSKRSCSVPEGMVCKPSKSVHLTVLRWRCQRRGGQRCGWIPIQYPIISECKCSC


Columns and labels:
[1] = biological target: BRIA receptor on C2C12 and ATDC5 cells; test: cell-based or functional assay
Gremlin [2] = biological target: T2, Gremlin; test: BIAcore, immobilised Gremlin, BMP-2 as analyte
T2 construct: Bought (R&D systems)
Procedure: (§1) Proteins were biotinylated and immobilised to streptavidin-coated sensor chip CM5 (Kirsch et al., 2000a). The extracellular domain of BRIA, BRIB and ARII were prepared as described (Kirsch et al., 2000a). […] Interaction with analyte was measured on a BIAcore 2000 system (Kirsch et al., 2000a). Evaluation of sensorgrams (Biaevaluation software 2.0) yielded kinetic constants for complex formation (kₒₙ) and dissociation (koff). […] Apparent dissociation constants KD were either calculated as KD=koff/kₒₙ or by evaluating dose dependency of equilibrium binding.

Chordin CR1 [3] = biological target: T3, Chordin CR1; test: BIAcore, immobilised Chordin CR1, BMP-2 as analyte
T3 construct: domain: CR1; also called Chordin domain CR1
Procedure: as §1

Chordin CR3 [4] = biological target: T4, Chordin CR3; test: BIAcore, immobilised Chordin CR3, BMP-2 as analyte
T4 construct: domain: CR3; also called Chordin domain CR3
Procedure: as §1

[5] = biological target: T5, Activin receptor II ectodomain; test: BIAcore, immobilised ARII ectodomain, BMP-2 as analyte
T5 construct: extracellular domain; Biotinylated, immobilised on a streptavidin chip; also called ARII; type II receptor ARII
Procedure: as §1

[6] = biological target: T6, BRIBEC, extracellular domain of BMPR-IB; test: BIAcore, immobilised BRIB ectodomain, BMP-2 as analyte
T6 construct: extracellular domain; Biotinylated, immobilised on a streptavidin chip; also called BRIB receptor
Procedure: as §1

[7] = biological target: T5, Activin receptor II ectodomain; test: BIAcore, immobilised ARII ectodomain, mutein as analyte, against BMP-2 wild type
Procedure: as §1

Noggin/Fc [8] = biological target: T1, Noggin/Fc; test: BIAcore, immobilised Noggin
Procedure: as §1

Noggin/Fc [9] = biological target: T1, Noggin/Fc; test: BIAcore, immobilised Noggin, mutein as analyte, against BMP-2 wild type
Procedure: as §1

Gremlin [10] = biological target: T2, Gremlin; test: BIAcore, immobilised Gremlin, mutein as analyte, against BMP-2 wild type
Procedure: as §1

Chordin CR1 [11] = biological target: T3, Chordin CR1; test: BIAcore, immobilised Chordin CR1, mutein as analyte, against BMP-2 wild type
Procedure: as §1

Chordin CR3 [12] = biological target: T4, Chordin CR3; test: BIAcore, immobilised Chordin CR3, mutein as analyte, against BMP-2 wild type
Procedure: as §1

[13] = biological target: T6, BRIBEC, extracellular domain of BMPR-IB; test: BIAcore, immobilised BRIB ectodomain, mutein as analyte, against BMP-2 wild type
Procedure: as §1

T5 sequence (P27037 20-135): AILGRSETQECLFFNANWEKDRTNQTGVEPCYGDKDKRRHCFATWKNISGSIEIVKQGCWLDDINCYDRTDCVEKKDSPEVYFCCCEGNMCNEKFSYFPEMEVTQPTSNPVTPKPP
T6 sequence (P36898 14-126): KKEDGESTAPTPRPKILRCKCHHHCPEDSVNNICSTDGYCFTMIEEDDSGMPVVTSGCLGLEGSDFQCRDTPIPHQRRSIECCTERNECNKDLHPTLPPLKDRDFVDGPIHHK
T2 sequence (O70326 25-184): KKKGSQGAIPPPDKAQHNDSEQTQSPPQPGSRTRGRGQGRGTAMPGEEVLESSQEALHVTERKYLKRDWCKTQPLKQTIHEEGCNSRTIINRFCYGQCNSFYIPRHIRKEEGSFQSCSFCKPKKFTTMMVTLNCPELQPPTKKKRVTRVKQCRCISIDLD

| ED50 of induction of alkaline phosphatase (ALP) activity in ATDC5 cells [1] [nM] | ED50 of induction of alkaline phosphatase (ALP) activity in C2C12 cells [1] [nM] | KD(Mut)/KD(WT) [7] [ratio] | KD(Mut)/KD(WT) [13] [ratio] | Binder | also measured |
| --- | --- | --- | --- | --- | --- |
| 8 | 25 |  |  | BMP-2 wild type (ligand, also called hBMP-2; human BMP-2) QAKHKQRKRLKSSCKRHPLYVDFSDVGWNDWIVAPPGYHAFYCHGECPFPLADHLNSTNHAIVQTLVNSVNSKIPKACCVPTELSAISMLYLDENEKVVLKNYQDMVVEGCGCR | Kd (Gremlin [2]): 22 nM; Kd (Chordin CR1 [3]): 61 nM; Kd (Chordin CR3 [4]): 67 nM; Kd [5]: 14 nM; Kd [6]: 3.6 nM |
|  |  | 0.9 |  | BMP-2 S69R (ligand, also called S69R mutein) QAKHKQRKRLKSSCKRHPLYVDFSDVGWNDWIVAPPGYHAFYCHGECPFPLADHLNSTNHAIVQTLVNRVNSKIPKACCVPTELSAISMLYLDENEKVVLKNYQDMVVEGCGCR |  |
| 140 | 330 | 1.2 | 10 | BMP-2 D53P (ligand, also called BMP-2 proline mutein D53P) QAKHKQRKRLKSSCKRHPLYVDFSDVGWNDWIVAPPGYHAFYCHGECPFPLAPHLNSTNHAIVQTLVNSVNSKIPKACCVPTELSAISMLYLDENEKVVLKNYQDMVVEGCGCR | Kd (Noggin/Fc [8]): 2.5 nM; KD(mut)/KD(WT) (Noggin/Fc [9]): 1.3 ratio; KD(mut)/KD(WT) (Gremlin [10]): 0.7 ratio; KD(mut)/KD(WT) (Chordin CR1 [11]): 0.7 ratio; KD(mut)/KD(WT) (Chordin CR3 [12]): 1.1 ratio |
|  |  | 1.4 | 3.2 | BMP-2 Y103A (ligand) QAKHKQRKRLKSSCKRHPLYVDFSDVGWNDWIVAPPGYHAFYCHGECPFPLADHLNSTNHAIVQTLVNSVNSKIPKACCVPTELSAISMLYLDENEKVVLKNAQDMVVEGCGCR |  |
|  |  | 1.2 | 0.34 | BMP-2 D53A (ligand) QAKHKQRKRLKSSCKRHPLYVDFSDVGWNDWIVAPPGYHAFYCHGECPFPLAAHLNSTNHAIVQTLVNSVNSKIPKACCVPTELSAISMLYLDENEKVVLKNYQDMVVEGCGCR |  |
| > 1500 | > 1600 | 2.3 |  | BMP-2 L51P (ligand, also called L51P mutein; BMP-2 proline mutein L51P) QAKHKQRKRLKSSCKRHPLYVDFSDVGWNDWIVAPPGYHAFYCHGECPFPPADHLNSTNHAIVQTLVNSVNSKIPKACCVPTELSAISMLYLDENEKVVLKNYQDMVVEGCGCR | Kd (Noggin/Fc [8]): 0.5 nM; KD(mut)/KD(WT) (Noggin/Fc [9]): 0.27 ratio; KD(mut)/KD(WT) (Gremlin [10]): 0.55 ratio; KD(mut)/KD(WT) (Chordin CR1 [11]): 0.85 ratio; KD(mut)/KD(WT) (Chordin CR3 [12]): 0.9 ratio |
|  |  | 1.2 | 1.7 | BMP-2 W28F (ligand, also called W28F mutein) QAKHKQRKRLKSSCKRHPLYVDFSDVGFNDWIVAPPGYHAFYCHGECPFPLADHLNSTNHAIVQTLVNSVNSKIPKACCVPTELSAISMLYLDENEKVVLKNYQDMVVEGCGCR |  |
